Target: phosphonull human rod opsin 6A mutant (human) (UniProt P08100)

Work on “human visual arrestin (rod arrestin, arrestin-1), wildtype (from UniProt P10523 1-405) (natural protein)” yielded a Toff in the BRET G-protein activation assay, untethered co-expression of Rod6A and ArrWT (comparison for the Rod6A-ArrWT fusions) of 1240 s.
